Source: US7164000

Biological target: CCR5 (UniProt P51681)
Experiment: cell-based or functional assay

Chain of wild-type RANTES (P13501 24-91): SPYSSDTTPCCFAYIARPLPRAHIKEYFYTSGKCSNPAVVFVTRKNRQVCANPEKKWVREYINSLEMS

relative antiviral activity (RANTES ID50/mutant ID50), PBMC, HIV-1BaL (fold compared to wild-type RANTES)	ID90, inhibition of HIV-1BaL infection of PBMC (p24 antigen)	Substance	relative antiviral activity (ID90 RANTES/ID90 mutant), MDM, HIV-1BaL (fold compared to wild-type RANTES)	relative antiviral activity (ID90 RANTES/ID90 mutant), PBMC, HIV-1 6366 (fold compared to wild-type RANTES)	relative antiviral activity (ID90 RANTES/ID90 mutant), PBMC, HIV-1BaL (fold compared to wild-type RANTES)	concentration giving the highest inhibition of wild-type RANTES activity (calcium mobilisation)
–	–	RANTES mutant pVU5 (Ser 1 to Cys) (from UniProt P13501 24-91) (ligand)	0.25	0.23	0.24	–
–	–	RANTES mutant pVU14 (Tyr 3 to Ala) (from UniProt P13501 24-91) (ligand)	0.23	0.1	0.22	–
–	–	RANTES mutant pVU15 (Ser 1 to Cys, Ser 5 to Cys) (from UniProt P13501 24-91) (ligand)	4.5	3.3	3.07	500 ng/mL
–	–	RANTES mutant pVU17 (additional N-terminal Leucine) (from UniProt P13501 24-91) (ligand)	11	1.9	4.6	–
–	–	RANTES mutant pVU22 (Tyr 14 to Phe) (from UniProt P13501 24-91) (ligand)	–	2.5	10	–
–	–	RANTES mutant pVU24 (Arg 17 to Ala) (from UniProt P13501 24-91) (ligand)	–	1.3	1.09	–
3.16	–	RANTES mutant pVU26 (Arg 44 to Glu) (from UniProt P13501 24-91) (ligand)	–	–	–	–
–	–	RANTES mutant pVU38 (Asp 6 to Arg) (from UniProt P13501 24-91) (ligand)	–	0.13	0.14	–
1.44	–	RANTES mutant pVU43 (Lys 45 to Glu) (from UniProt P13501 24-91) (ligand)	–	–	–	–
–	0.096 µg/mL	wild-type RANTES (from UniProt P13501 24-91) (ligand)	–	–	–	–
